Experiments:
[1] = target: Recombinant human caspase-9 (active) (human) (UniProt P55211); assay: enzyme inhibition assay (fluorogenic substrate cleavage); one unit of active recombinant human caspase incubated with various concentrations of peptide inhibitor in 100 mM NaCl, 50 mM HEPES, 10 mM DTT, 1 mM EDTA, 10% glycerol, 0.1% CHAPS, pH 7.4, 37°C, 30 min; then 200 μM substrate (Ac-DEVD-MCA for caspases-3 and -7, Ac-IETD-MCA for caspase-8, Ac-LEHD-MCA for caspase-9); apparent Ki = IC50/(1+[S]/Km)
Recombinant human caspase-9 (active) (human), sequence (P55211 whole entry): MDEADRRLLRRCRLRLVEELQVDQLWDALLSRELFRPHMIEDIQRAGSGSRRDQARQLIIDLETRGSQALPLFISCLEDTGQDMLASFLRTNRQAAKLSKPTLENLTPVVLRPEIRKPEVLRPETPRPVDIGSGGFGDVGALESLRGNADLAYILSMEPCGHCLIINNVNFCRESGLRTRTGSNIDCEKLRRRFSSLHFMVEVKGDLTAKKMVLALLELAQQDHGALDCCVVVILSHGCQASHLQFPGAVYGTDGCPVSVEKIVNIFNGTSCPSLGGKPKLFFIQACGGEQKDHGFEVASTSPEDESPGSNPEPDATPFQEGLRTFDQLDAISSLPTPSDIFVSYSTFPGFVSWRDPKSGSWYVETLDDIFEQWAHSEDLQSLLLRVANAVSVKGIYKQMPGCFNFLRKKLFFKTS

[2] = target: T1, substituted (S209A) active caspase-3 generated by coexpression of HA-p17 and HA-p12 (S209A) subunits (human) (UniProt P42574)
T1 sequence 1: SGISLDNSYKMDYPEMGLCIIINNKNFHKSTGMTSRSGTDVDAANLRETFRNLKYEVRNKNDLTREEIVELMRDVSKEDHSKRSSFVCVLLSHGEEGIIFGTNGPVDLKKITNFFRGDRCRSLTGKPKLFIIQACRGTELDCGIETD
T1 sequence 2: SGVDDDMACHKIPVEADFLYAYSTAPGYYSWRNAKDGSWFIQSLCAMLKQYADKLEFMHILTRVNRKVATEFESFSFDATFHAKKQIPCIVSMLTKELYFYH

Substance	Ki [1]	cleavage of Ac-DNLD-MCA by in vitro translated S209A active caspase-3, against the wild type (% loss of cleavage activity) [2]
Ac-DEVD-CHO (peptide)	1.35 nM	
Ac-DNLD-CHO (peptide)	> 200 nM	
Ac-DNLD-MCA (peptide)		> 60
